{"source": "paper PMC13242717", "origin": "cited, not measured here", "molecular_target": "spike protein (SARS-CoV-2) (UniProt P0DTC2)", "note": "pKd: −log10 of the molar value."}
{"substance": "spike protein (from UniProt P0DTC2)", "values": [{"measurement": "pKd", "value": 6.52}]}
